Starred links: 1 amine or outer side, 2 acyl side, 3 side chain; linkers in the order of their positions; H or OH if unused. Positions of bridges follow the written chain, without caps; N, C: chain ends. Non-standard residues stand in square brackets, D forms with d. Primed or numbered codes have the meaning given here. *: point of attachment. B5(10) = 2-amino-2-(pent-4-en-1-yl)hept-6-enoic acid, bis(4-pentenyl)glycine, stitching residue bearing both staples, C=CCCCC(CCCC=C)(N[*:1])C(=O)[*:2]; PyrS2″ = (S)-3-amino-1-((pent-4-en-1-yloxy)carbonyl)pyrrolidine-3-carboxylic acid (stapling residue), C=CCCCOC(=O)N1CC[C@@](N[*:1])(C(=O)[*:2])C1; B5(4) = 2,2-bis(4-pentenyl)glycine = 2-amino-2-(pent-4-en-1-yl)hept-6-enoic acid (stitching residue), C=CCCCC(CCCC=C)(N[*:1])C(=O)[*:2]; B5(5) = 2,2-bis(4-pentenyl)glycine, 2-amino-2-(pent-4-en-1-yl)hept-6-enoic acid (stitching residue), C=CCCCC(CCCC=C)(N[*:1])C(=O)[*:2]; B5(33) = 2-amino-2-(pent-4-en-1-yl)hept-6-enoic acid (bis-pentenylglycine, two olefin side chains), C=CCCCC(CCCC=C)(N[*:1])C(=O)[*:2]; PyrS2 = (S)-3-amino-1-((pent-4-en-1-yloxy)carbonyl)pyrrolidine-3-carboxylic acid, C=CCCCOC(=O)N1CC[C@@](N[*:1])(C(=O)[*:2])C1; Phe(3-COOH) = N[C@@H](Cc1cccc(C(=O)O)c1)C(=O)O; Phe(2-CF3) = N[C@@H](Cc1ccccc1C(F)(F)F)C(=O)O; Phe(2-Cl) = N[C@@H](Cc1ccccc1Cl)C(=O)O; 2Nal = N[C@@H](Cc1ccc2ccccc2c1)C(=O)O; Bta = N[C@@H](Cc1csc2ccccc12)C(=O)O; Lys(iPr) = CC(C)NCCCC[C@H](N)C(=O)O; αAllylPro = C=CC[C@@]1(C(=O)O)CCCN1; tBuAla = CC(C)(C)C[C@H](N)C(=O)O; Propanoyl(3-OMe) = COCCC(=O)*; Ms = CS(=O)(=O)*
T1: B-cat-Halo (UniProt P35222 1-781)
T1 sequence (looked up): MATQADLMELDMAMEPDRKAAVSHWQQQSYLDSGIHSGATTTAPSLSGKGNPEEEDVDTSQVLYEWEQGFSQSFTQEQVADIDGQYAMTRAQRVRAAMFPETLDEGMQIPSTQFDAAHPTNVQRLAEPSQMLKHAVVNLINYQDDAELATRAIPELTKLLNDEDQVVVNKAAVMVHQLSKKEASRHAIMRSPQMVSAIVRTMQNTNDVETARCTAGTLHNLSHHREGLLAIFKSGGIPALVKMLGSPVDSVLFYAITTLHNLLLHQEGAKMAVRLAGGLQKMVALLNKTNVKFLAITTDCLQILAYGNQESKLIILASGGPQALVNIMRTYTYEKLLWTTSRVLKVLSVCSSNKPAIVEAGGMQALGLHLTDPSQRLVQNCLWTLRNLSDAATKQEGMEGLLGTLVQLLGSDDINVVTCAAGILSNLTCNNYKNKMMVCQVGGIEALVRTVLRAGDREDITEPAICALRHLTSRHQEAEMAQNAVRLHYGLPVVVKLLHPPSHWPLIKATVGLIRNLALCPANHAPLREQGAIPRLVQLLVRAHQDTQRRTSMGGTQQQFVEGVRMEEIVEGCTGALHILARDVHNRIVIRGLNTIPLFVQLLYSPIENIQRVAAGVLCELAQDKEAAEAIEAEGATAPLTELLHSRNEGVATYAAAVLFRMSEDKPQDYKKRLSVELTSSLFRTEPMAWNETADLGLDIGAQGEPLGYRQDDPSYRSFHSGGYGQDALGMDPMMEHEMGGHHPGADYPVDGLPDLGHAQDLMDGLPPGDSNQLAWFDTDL

T2: B-cat-Halo (beta-catenin HaloTag fusion expressed in HEK293 cells) (Homo sapiens (Human), UniProt P35222 1-781)
T2 sequence: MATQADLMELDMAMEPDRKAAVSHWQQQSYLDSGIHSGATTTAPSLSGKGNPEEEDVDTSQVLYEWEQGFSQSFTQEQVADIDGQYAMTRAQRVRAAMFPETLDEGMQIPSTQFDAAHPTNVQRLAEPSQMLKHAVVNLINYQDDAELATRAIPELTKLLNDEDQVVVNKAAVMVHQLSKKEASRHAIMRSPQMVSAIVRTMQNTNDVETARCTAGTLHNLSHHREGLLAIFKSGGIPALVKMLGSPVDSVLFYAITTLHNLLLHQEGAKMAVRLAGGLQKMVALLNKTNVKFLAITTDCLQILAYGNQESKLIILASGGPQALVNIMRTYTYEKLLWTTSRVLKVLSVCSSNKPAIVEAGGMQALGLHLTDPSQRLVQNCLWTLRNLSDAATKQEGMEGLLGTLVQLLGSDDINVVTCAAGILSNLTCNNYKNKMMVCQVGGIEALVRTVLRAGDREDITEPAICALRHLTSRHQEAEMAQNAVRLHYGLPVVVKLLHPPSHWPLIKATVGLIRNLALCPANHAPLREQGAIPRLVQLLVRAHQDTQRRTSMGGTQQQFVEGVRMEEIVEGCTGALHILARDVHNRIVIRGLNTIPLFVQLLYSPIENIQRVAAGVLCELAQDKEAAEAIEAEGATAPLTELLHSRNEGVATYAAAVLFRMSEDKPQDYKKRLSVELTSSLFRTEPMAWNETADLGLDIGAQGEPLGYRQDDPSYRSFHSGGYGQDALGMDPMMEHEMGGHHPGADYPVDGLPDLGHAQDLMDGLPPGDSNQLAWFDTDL

B1: I-1278 (peptide)
peptide: Ac-[αAllylPro]D[tBuAla][B5(5)]DDAAF[Lys(iPr)][PyrS2][Phe(2-Cl)][Bta]Q-NH2
modifications: staple 1-4, 4-11; not fully specified; printed as Ac-PL3-Asp-Npg-B5-Asp-Asp-Ala-Ala-Phe-iPrLys-PyrS2-2C1F-BztA-Gln-NH2
B2: I-1259 (peptide)
peptide: {Propanoyl(3-OMe)}-[αAllylPro]D[tBuAla][B5(33)]DDAAFN[PyrS2][Phe(2-Cl)][Bta][dT]-NH2
modifications: staple 1-4, 4-11 (inferred); not fully specified; printed as MeOPr-PL3-Asp-Npg-B5-Asp-Asp-Ala-Ala-Phe-Asn-PyrS2-2C1F-BztA-dThr-NH2
B3: I-1277 (peptide)
peptide: Ac-[αAllylPro]D[tBuAla][B5(5)]DD[Lys(iPr)]AFL[PyrS2][Phe(2-Cl)][Bta]L-NH2
modifications: staple 1-4, 4-11; not fully specified; printed as Ac-PL3-Asp-Npg-B5-Asp-Asp-iPrLys-Ala-Phe-Leu-PyrS2-2C1F-BztA-Leu-NH2
B4: I-1263 (peptide)
peptide: Ac-[αAllylPro]D[tBuAla][B5(33)]DTAAFT[PyrS2]F[Bta]S-NH2
modifications: staple 1-4, 4-11 (inferred); not fully specified; printed as Ac-PL3-Asp-Npg-B5-Asp-Thr-Ala-Ala-Phe-Thr-PyrS2-Phe-BztA-Ser-NH2
B5: I-1275 (peptide)
peptide: Ac-[αAllylPro]D[tBuAla][B5(5)]DD[Lys(iPr)]AFL[PyrS2″][Phe(2-Cl)][Bta]Q-NH2
modifications: staple 1-4; staple 4-11 (inferred); not fully specified; printed as Ac-PL3-Asp-Npg-B5-Asp-Asp-iPrLys-Ala-Phe-Leu-PyrS2-2C1F-BztA-Gln-NH2
B6: I-1258 (peptide)
peptide: Ms-[αAllylPro]D[tBuAla][B5(33)]DDAAFN[PyrS2][Phe(2-Cl)][Bta][dT]-NH2
modifications: staple 1-4, 4-11 (inferred); not fully specified; printed as MeSO2-PL3-Asp-Npg-B5-Asp-Asp-Ala-Ala-Phe-Asn-PyrS2-2C1F-BztA-dThr-NH2
B7: I-1276 (peptide)
peptide: Ac-[αAllylPro]D[tBuAla][B5(5)]DD[Lys(iPr)]AFL[PyrS2″][Phe(2-Cl)][Bta]T-NH2
modifications: staple 1-4; staple 4-11 (inferred); not fully specified; printed as Ac-PL3-Asp-Npg-B5-Asp-Asp-iPrLys-Ala-Phe-Leu-PyrS2-2C1F-BztA-Thr-NH2
B8: I-1273 (peptide)
peptide: Ac-[αAllylPro]D[tBuAla][B5(5)]DD[Lys(iPr)]AFT[PyrS2″][Phe(2-Cl)][Bta]T-NH2
modifications: staple 1-4; staple 4-11 (inferred); not fully specified; printed as Ac-PL3-Asp-Npg-B5-Asp-Asp-iPrLys-Ala-Phe-Thr-PyrS2-2C1F-BztA-Thr-NH2
B9: I-1274 (peptide)
peptide: Ac-[αAllylPro]D[tBuAla][B5(5)]DD[Lys(iPr)]AFT[PyrS2″][Phe(2-Cl)][Bta]L-NH2
modifications: staple 1-4; staple 4-11 (inferred); not fully specified; printed as Ac-PL3-Asp-Npg-B5-Asp-Asp-iPrLys-Ala-Phe-Thr-PyrS2-2C1F-BztA-Leu-NH2

Biological target: T1, B-cat-Halo
Assay: cell-based or functional assay

| Binder | NanoBRET Abs IC50 |
| --- | --- |
| B1 | 18 µM |
| B2 | 18.1 µM |
| B3 | > 20 µM |
| Ac-[αAllylPro]D[tBuAla][B5(10)]DDAAF[Lys(iPr)][PyrS2][Phe(2-Cl)][Bta]T-NH2 (staple 1-4, 4-11) [I-1279] | 22.9 µM |
| B4 | 20 µM |
| B5 | 27.8 µM |
| B6 | > 20 µM |
| B7 | > 20 µM |
| B8 | > 20 µM |
| Ac-[αAllylPro]D[tBuAla][B5(10)]DDAAF[Lys(iPr)][PyrS2][Phe(2-Cl)][Bta]L-NH2 (staple 1-4, 4-11) [I-1280] | 24.7 µM |
| B9 | > 20 µM |

Biological target: T2, B-cat-Halo (beta-catenin HaloTag fusion …)
Assay: cell-based or functional assay

| Binder | NanoBRET Abs IC50 |
| --- | --- |
| Ac-[αAllylPro]D[tBuAla][B5(4)]D[Phe(3-COOH)]AAFL[PyrS2″][Phe(2-CF3)][2Nal]Q-NH2 (staple 1-4, 4-11) [I-2460] | 12.8 µM |

— patent US20240116985A1 (published 2024)
